According to the supplement of paper PMC9112550, “Optimization of the antimicrobial peptide Bac7 by deep mutational scanning” (BMC Biology, 2022):

Each sequence was assayed on Escherichia coli TOP10 (assay: shrunken log2 fold change of peptide-encoding DNA abundance (4.5 h post-induction vs induction); higher = less antimicrobial activity (less host growth inhibition)). Details: time post-induction: 4.5 h; library: site-saturation at positions 5, 18, 19, 20.
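Further: peptides expressed intracellularly from a pBAD plasmid library in pooled LB shake-flask culture, induced with 0.3% L-arabinose, DNA abundance read by NGS, three biological replicates, DESeq2 with apeglm shrinkage.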

In order of falling “shrunken log2 fold change” value:
1. RRIRGRPPRLPRPRPRPPPSPRP  1.22
2. RRIRKRPPRLPRPRPRPPQRPRP  1.08
3. RRIRKRPPRLPRPRPRPAEAPRP  0.959
4. RRIRCRPPRLPRPRPRPPQKPRP  0.627
5. RRIRARPPRLPRPRPRPVEQPRP  0.446
6. RRIRFRPPRLPRPRPRPVRFPRP  0.429
7. RRIRLRPPRLPRPRPRPGSAPRP  0.273
8. RRIRGRPPRLPRPRPRPKNSPRP  0.252
9. RRIRFRPPRLPRPRPRPGFWPRP  0.24
10. RRIRCRPPRLPRPRPRPCLWPRP  0.238
11. RRIRPRPPRLPRPRPRPFFEPRP  0.229
12. RRIRMRPPRLPRPRPRPDWWPRP  0.218
13. RRIRSRPPRLPRPRPRPAMPPRP  0.206
14. RRIRRRPPRLPRPRPRPEHHPRP  0.202
15. RRIRKRPPRLPRPRPRPIPDPRP  0.2
16. RRIRDRPPRLPRPRPRPGGHPRP  0.188
17. RRIRERPPRLPRPRPRPGHEPRP  0.159
18. RRIRPRPPRLPRPRPRPVFAPRP  0.155
19. RRIRLRPPRLPRPRPRPAERPRP  0.139
20. RRIRWRPPRLPRPRPRPPKVPRP  0.136
21. RRIRPRPPRLPRPRPRPMGAPRP  0.117
22. RRIRLRPPRLPRPRPRPVGQPRP  0.0826
23. RRIRIRPPRLPRPRPRPVPHPRP  0.0565
24. RRIRVRPPRLPRPRPRPMWLPRP  0.0511
25. RRIRERPPRLPRPRPRPMFAPRP  0.0495
26. RRIRTRPPRLPRPRPRPACEPRP  0.0463
27. RRIRVRPPRLPRPRPRPANCPRP  0.031
28. RRIRFRPPRLPRPRPRPSHWPRP  0.0131
29. RRIRYRPPRLPRPRPRPCRSPRP  0.00487
30. RRIRERPPRLPRPRPRPRNVPRP  -0.00139
31. RRIRDRPPRLPRPRPRPCGFPRP  -0.0017
32. RRIRFRPPRLPRPRPRPDSIPRP  -0.0087
33. RRIRRRPPRLPRPRPRPKEKPRP  -0.00936
34. RRIRPRPPRLPRPRPRPQIDPRP  -0.0108
35. RRIRGRPPRLPRPRPRPWMMPRP  -0.0114
36. RRIRERPPRLPRPRPRPATWPRP  -0.014
37. RRIRIRPPRLPRPRPRPQGPPRP  -0.0152
38. RRIRHRPPRLPRPRPRPQKAPRP  -0.0296
39. RRIRMRPPRLPRPRPRPYVHPRP  -0.0522
40. RRIRYRPPRLPRPRPRPNRAPRP  -0.0548
41. RRIRSRPPRLPRPRPRPHLAPRP  -0.0617
42. RRIRERPPRLPRPRPRPTWTPRP  -0.07
43. RRIRIRPPRLPRPRPRPHCGPRP  -0.0759
44. RRIRVRPPRLPRPRPRPVSDPRP  -0.0859
45. RRIRFRPPRLPRPRPRPQKKPRP  -0.0897
46. RRIRIRPPRLPRPRPRPPNFPRP  -0.108
47. RRIRLRPPRLPRPRPRPFWVPRP  -0.11
48. RRIRRRPPRLPRPRPRPQIVPRP  -0.13
49. RRIRRRPPRLPRPRPRPFCTPRP  -0.13
50. RRIRERPPRLPRPRPRPDTAPRP  -0.131
51. RRIRNRPPRLPRPRPRPNSCPRP  -0.137
52. RRIRTRPPRLPRPRPRPQSEPRP  -0.141
53. RRIRFRPPRLPRPRPRPQTGPRP  -0.152
54. RRIRERPPRLPRPRPRPLLCPRP  -0.183
55. RRIRDRPPRLPRPRPRPTYYPRP  -0.204
56. RRIRPRPPRLPRPRPRPILTPRP  -0.211
57. RRIRERPPRLPRPRPRPICDPRP  -0.221
58. RRIRSRPPRLPRPRPRPSQSPRP  -0.242
59. RRIRYRPPRLPRPRPRPQPVPRP  -0.258
60. RRIRKRPPRLPRPRPRPYFVPRP  -0.264
61. RRIRSRPPRLPRPRPRPLVIPRP  -0.281
62. RRIRVRPPRLPRPRPRPQLNPRP  -0.292
63. RRIRWRPPRLPRPRPRPLYHPRP  -0.307
64. RRIRLRPPRLPRPRPRPSTMPRP  -0.407
65. RRIRCRPPRLPRPRPRPHKVPRP  -0.446
66. RRIRFRPPRLPRPRPRPHHWPRP  -0.499
67. RRIRERPPRLPRPRPRPNYPPRP  -0.509
68. RRIRYRPPRLPRPRPRPTTGPRP  -0.549
69. RRIRIRPPRLPRPRPRPCTCPRP  -0.652
70. RRIRHRPPRLPRPRPRPNKYPRP  -0.782
71. RRIRIRPPRLPRPRPRPNMSPRP  -0.783
72. RRIRERPPRLPRPRPRPNSMPRP  -0.864
73. RRIRIRPPRLPRPRPRPSIYPRP  -0.925
74. RRIRIRPPRLPRPRPRPCTLPRP  -1.08
75. RRIRTRPPRLPRPRPRPFIDPRP  -1.15
